Reference: paper PMC6778621
pKd: −log10 of the molar value.

Legend:
[1] = target: MET-ECD-Fc-His (WT) (human) (UniProt P08581); assay: SPR
[2] = target: MET-ECD-Fc-His V370D (human) (UniProt P08581); assay: SPR

pKd [1]: 6.07
pKd [2]: 6.04
Substance: SP domain of HGF (β-chain) (domain or fragment)
